{"source": "the nanobody polyreactivity screen of Harvey et al. (2022)"}
{"test": "yeast display, Sf9 membrane polyspecificity reagent, FACS + sequencing; frameworks hold sequencing errors", "outline": "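Synthetic nanobody libraries on Saccharomyces cerevisiae BJ5465 were galactose-induced for 36–48 hours, stained 1 hour at 4 °C with 10% biotinylated, detergent-solubilized Sf9 membrane reagent and enriched on streptavidin microbeads. FACS then separated cells into low and high (top ~1%) gates by anti-HA (expression) and streptavidin (reagent binding) fluorescence. Genes were colony-PCR amplified, MiSeq 2 × 250 sequenced and CDR-length filtered. A clone's polyreactivity label is that of its gate of origin.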"}
{"sequence": "QVQLVESGGCIVQAGGSLRLSCAASGRIFKLYAMGWYRQAPGKERELVAAITTSGGSTYYADSVKGRFTISRDNAKNTVSLEMNSLIPEDTAGYYCNARAVRYPFTGNYWGQGTQVTVSS", "polyreactivity (PSR sort gate)": "high polyreactivity"}
{"sequence": "QVQLVESGGGLVQAGGSLRLSCAASGSTFVYNAMGWYRQAPGKERELVAAISTGGSTYYADSVKGRFTISRDNAKNTVYLQMNSLKPEDNAVYYCAAKQRTTLYDYWGQGTQVTVSS", "polyreactivity (PSR sort gate)": "high polyreactivity"}
{"sequence": "QVHLVESGGGIVQAGVSLRLSCAASGRIFYGYTMGWYRQAPGKERELVASIDYSTGRTYYADSVKGRFTISRDNAKYTVYLQMNSLKPEDTAVYYCNADPNYSFLRYDYWGQGTQVTVSS", "polyreactivity (PSR sort gate)": "high polyreactivity"}
{"sequence": "QVQLVESGGGLVQAGGSLRLSCAASGSIFLLYAMGWYRQAPGKERELVARISWSGDNTRYADSVKGRFTISPDNAKNTVYLQMNSLKPEDTAVYYCNAYFFYGQWKGYDYWGQGTQVTVSS", "polyreactivity (PSR sort gate)": "low polyreactivity"}
{"sequence": "QVQLVESGGGLVQAGGSLRLSCAASGYTFIGYAMGWYRQAPGKERELVAAISWSVGRTYYADSVKGRFTISRDNAKNTVYLQMNSLKPEDTAVYYCNAVSSFYYCYDYWGQVTQVTVSS", "polyreactivity (PSR sort gate)": "low polyreactivity"}
{"sequence": "QVQLVESGGGIVQAGGSLRLSCAASGRIFFGYAMGWYRQAPGKERELVAAITSGGSTYYADSVKGRFTISRDNAKNTDYLQMYSLKTEDTAVYYCAAVRWYGSKRYGYWGQGTQVTVSS", "polyreactivity (PSR sort gate)": "high polyreactivity"}
{"sequence": "QVQLVESGGGLVQAGGSLRLSCAASGFIFRYYAMGWYRQAPGKERELVAAISRSGGSTYYADSVKGRFTISRDNAKNTVYLQMNSLKPEDTAVYYCNKDPRGRIPVPGTWIMDYWGQGTQVTVSS", "polyreactivity (PSR sort gate)": "high polyreactivity"}
{"sequence": "QVQLVESGGGLVQAGGSLRLSCAASGSIFPYVNAMGWYRQAPGKERELVASIPGGGGTKYADSVKGRFTISRDNAKNTVYLQMNSLKPEDTAVYYCNATSGNPASTARMNYWGQGTQVTVSS", "polyreactivity (PSR sort gate)": "low polyreactivity"}
{"sequence": "QVQLVESGGGIVQAGGSLRLSCASSGRTFFWYAMVWYRQAPGKERELVAAITYRGGGTYYADSVKGRFTISRDNAKNTVYLQMNSLKPEDTAVYYCAAEYWVGVYLYDYWGQGTQVTVSS", "polyreactivity (PSR sort gate)": "high polyreactivity"}
{"sequence": "QDQLGESGGGLVQAGGSLRLICAASGRIFPYYAMAWYRQAAGKEREFVASITKRRGSTSYADSVKGRFTISRDNAKNTVYLQMHSLKPEDTAVYYCAARRGSGMVTYYGGDYWGQGTQVTVSS", "polyreactivity (PSR sort gate)": "low polyreactivity"}
{"sequence": "QVQLVESGGGLVQAGGSLRLSCAASGFIFYRYAMGWYRQAPGNERELVAAISSGGSTYYADSVKGRFTISRDNAKNTVYLQMNSLKPEDTAVYYCNAYHNYWRYRTDEMNYWGQGTQVTVSS", "polyreactivity (PSR sort gate)": "high polyreactivity"}
{"sequence": "QVQLVESGGGLVQAGGSLRLSCAASGSTFKSYAMGWYRQAPGKERELVAAITHRGSTYYADSVKGRFTISRDNAKNTVYLQMNSLKPEDTAVYYCNVRRIGNGRRVDYWGQGTQVTVSS", "polyreactivity (PSR sort gate)": "high polyreactivity"}
{"sequence": "QVQLVESGGGLVQAGGSLRLSCAASGSIFKGNVMGWYRQAPGKERELVAAITWSGGSTYYADSVKGRFTISRDNAKNTVYLQMNSLKPEDTAVYYCNTDRYHRVDFDYWGQGTQVTVSS", "polyreactivity (PSR sort gate)": "high polyreactivity"}
{"sequence": "QVQLVESGGGLVQARGSLRLSCAASGIILYRNGMGWYRQAPGKERELVAAISWSTGSTYYADSVKGRFTISRDNAKNTVYLQMNSLKPEDTAVYYCATDYVGYSFGMYYWGQGTQVTVSS", "polyreactivity (PSR sort gate)": "low polyreactivity"}
{"sequence": "QVQLVESGGGLVQAGGSLRLSCAASGSTFKFYTMGWYRQAPGKERELVATIDWSGGSTYYADSVKGRFTISRDNAKNTVYLQMNSLKPEDTAVYYCAAYSRSRNTRLGKYYYWGQGTQVTVSS", "polyreactivity (PSR sort gate)": "high polyreactivity"}
{"sequence": "QVQLVESGGGLVQAGGSLRLSCAASGITFVHYAMGWYRQAPGKERELVAAISSGGGSTYYADSVKGRFTLSRDHAKNTGNLQMHSLNPEDTAVDNCAAYVLPYGEYDYWGQGTQVTVSS", "polyreactivity (PSR sort gate)": "low polyreactivity"}
{"sequence": "QVQLVESGGGLVQAGGSLRLSCAASGSIFTPYAMGWYRQAPGKERELVAAITQTGGITYYADSVKGRFTISRDNAKNTVYLQMNSLKPEDTAVYYCAADDYNPFSYSYGLEYWGQGTQVTVSS", "polyreactivity (PSR sort gate)": "low polyreactivity"}
{"sequence": "QVQLVESGGGLVQAGGSIRLSCAASGSIFTINTMGWYRQAPGKERELVAAISKRGGSTYYADSVKGRFTISRDNAKNTVYLQKNSLKPEDTAVYYCAARQFYKYYYWGQGTQVTVSS", "polyreactivity (PSR sort gate)": "high polyreactivity"}
{"sequence": "QVQLVESGGGLVQAGGSLRLSCAASGSTFVNYGMGWYRQAPGKERELVAAITQSGGSTYYADSVKGRFTISRDNAKNTVYLQMNSLKPEDTAVYYCAAEVVRQWHGIGYDYWGQGTQVTVSS", "polyreactivity (PSR sort gate)": "low polyreactivity"}
{"sequence": "QVQLVESGGGLVQAGGSLRLSCAPSGITFVKNVMGWYRQAPGKEREFVAAISTIGARTYYADSVKGRFTISRDNAKNTVYLQMNSLIPEDTAVYYCNAYKSGYGQEYDYWGQGTQVTVSS", "polyreactivity (PSR sort gate)": "high polyreactivity"}
{"sequence": "QVQLVESGGGLVQAGGSLRLSCAASGGIFGYYTRGWYRQAPGKEREVVAAISRRGGSTYYADSVKGRFTISRDNAKNTVYLQMNSLKPEDTAVYYCAAGLSSGGTHYDYWGQGTQVTVSS", "polyreactivity (PSR sort gate)": "high polyreactivity"}
{"sequence": "QVQLVESGGGLVQAGGSLRLSCAASGSIFYSYAMGWYRQAPGKEREFVAAISQLGGSTYYADSVKGRFTISRDNAKNTVYLQMNSLKPEDTAVYSCNAVYRRAQFLYGYDYWGQGTQVTVSS", "polyreactivity (PSR sort gate)": "high polyreactivity"}
{"sequence": "QVQLVESAGGLVQAGARLRLSCAASGFTFQYYALGWYRQAPGKERELVATISTSGGNTYYADSVKGRFTITRDNAKNTVYLQMNSLKPEDTAVYYCAARRYRASSRGYGYWGQGTQVTVSS", "polyreactivity (PSR sort gate)": "high polyreactivity"}
{"sequence": "QVQLVESGGGLVQAGGSLRISCAASGSTFWYYAMGWYRQAPGKERELVAAINSDDSTNYADSVKGRFTISRDNAKNTVYLQMNSLKPEDTAVYYCNRGFVYSTTGLWRYYDFDYWGQGTQVTVSS", "polyreactivity (PSR sort gate)": "low polyreactivity"}
{"sequence": "QVQLVESGGGLVQAGGSLRLSCAASGFIFFRYAMGWYRQAPGKERELVAAISRTGGRTYYADSVKGRFTISRDNAKNTVYLQMNSLKPEDTAVYYCAARRHSRVKYRDYWGQGTQVTVSS", "polyreactivity (PSR sort gate)": "high polyreactivity"}
{"sequence": "QVQLVESGGGLVQAGGSLRLSCAASGSIFKLNAMGWYRQAPGKERELVAAITFSDGSTNYADSVKGRFTISRDNAKNTVYLQMNSLKPEDTAVYYCAAEFYYRTQWYYYWGQGTQVTVSS", "polyreactivity (PSR sort gate)": "high polyreactivity"}
{"sequence": "QVQLVESGGGLVQAGGSLRLSCSASGFIFSRYVMGWYRKAPGKEREFVAVISYRGGSTYYADSVKGRFTFSRDNAKNTVYLQMNSLKPEDTAVYYCNADTIPDGEDRYDYWGQGTQVTVSS", "polyreactivity (PSR sort gate)": "low polyreactivity"}
{"sequence": "QVQLVESGGGLVQAGGSLRLSCAASGTTSPNAMGWYRQAPGKERELVAAMWSGGTYYADSVKGRFTISRDNAKNTVYLQMNSLKPEDTAVYYCAADGEFRRAWYEGDYWGQGTQVTVSS", "polyreactivity (PSR sort gate)": "low polyreactivity"}
{"sequence": "QVQLVESGGGLVQAGGSLRLSCAASGFIFGDYAMGWYRQAPGKERELVAAISRSGGRTYYADSVKGRFTISRDNAKNTVYLQMNSLKPEDTAVYYCAKSSLNIYDYWGQGTQVTVSS", "polyreactivity (PSR sort gate)": "high polyreactivity"}
{"sequence": "QVQLVESGGGLVQAGGSLRLSCAASGRSFSIYAMGCYRQAPGKERELVASISRGISTNYADSVKGRFTISRDNAKNTVYLQMNSLKPEDTAVYYCASDLFSNYRYWGQGTQVTVSS", "polyreactivity (PSR sort gate)": "high polyreactivity"}
{"sequence": "QVQLVESGGGLVQAGGSLRLSCAASGFIFTIYAMGWYRQAPGKERELVAAITWNGGRTYYADSVKGRFTISRDNAKNTVDLQMNSLKPEDTAVYYCAARYGRAYDYWGQGSQVTVSS", "polyreactivity (PSR sort gate)": "high polyreactivity"}
{"sequence": "QVQLVESGGGLVQAGGSLRLSCAASGGIFRANTMGWYRQAPGKERELVAVISWSGARTYYADSVKGRFTISRDNAKNTVYLQMNSLKPEDTAVYYCNARVPKLGSMYYWGHGTQVTVSS", "polyreactivity (PSR sort gate)": "high polyreactivity"}
{"sequence": "QFQLVESGGGLVQAGGSLRLSCAASGRIFVYNAMGLYRQAPGKEREFVATITSSGGRTYYADSVKGRFTISRDNAKNTVYLQLNSLKPEDTAVYYWAARPQNNGRNPLYRYNYWGQGTQVTVSS", "polyreactivity (PSR sort gate)": "high polyreactivity"}
{"sequence": "QVQLVESGGGLVQAGGSLRLSCAASGRILYGYAMGWYRQAPGKERELVASIPWSGGSTYADSVKGRFTISRDNAKNTVYLQMNSLKPEDTAVYYCATRRGPKWQWLTYGYWGQGTQVTVSS", "polyreactivity (PSR sort gate)": "low polyreactivity"}
{"sequence": "QVQRVESGGGLVQAGGSLRLSCAASGSTFGIYDMGWYRQSPGKEMELVARITYSGGSRYYADSVKGRFTISRDNAKNTVYLQMNSLKPEDTAVYYCAARSWPHYFRYDYWGQGTQVTVSS", "polyreactivity (PSR sort gate)": "high polyreactivity"}
{"sequence": "QVQLVESGGGLVQAGGSLRLSCAASGRIFRINTMGWNRQAPGKERELVAAIRTSGSSTYADSVKGRFTISRDNAKNTVYLQMNSLKPEDTAVYYCNTKYPGRGYYWGQGTQVTVSS", "polyreactivity (PSR sort gate)": "high polyreactivity"}
{"sequence": "QVQLVESGGGLVQAGGSLRLSCAASGRIFYYNAMGWYRQAPGKERELVAAITSGGSTNYADSVKGRFTISRDNAKNTVYLQMNSLNPEDTAVYYCAADYYYYVAGVHYDYWGQGTLVTVSS", "polyreactivity (PSR sort gate)": "low polyreactivity"}
{"sequence": "QDQLVESGGGLVQAGGSLRLSCAASGSIFYAYTMGWYRQAPGKEMELVASITKSGGSTYYADSVKGRFTISRDNAKNTVYLQMNSLKPEDTAVYYCAAVVGRNRTRSYGYWGQGTQVTVSS", "polyreactivity (PSR sort gate)": "high polyreactivity"}
{"sequence": "QVQLVESGGGLVQAGGSLRLSCAASGGTFTKNAMGWYRQAPGKERELVAAINYSGGSTYYADSVKGRFTISRDNAKNTVYLQMNSLKPEDTAVYYCAADDYRDGFTQYDYWGQGTQVTVSS", "polyreactivity (PSR sort gate)": "low polyreactivity"}
{"sequence": "QVQLVESGGGLVQAGGSLRLSCAASGRTFGFYAMGWYRQAPGKERELVAAIRGSIGNTYYADSVKGRFTISRDNAKNTVYLQMNSLKPEDTAVYYCAKAIRYPSAKFYWGQGTQVTVSS", "polyreactivity (PSR sort gate)": "high polyreactivity"}
{"sequence": "QVQLVESGGGLVQAGGSLRLSCADSGSTFDYPMGWYRQAPGKERELVASITFSTGSTYYADSVKGRFTISRDNAKNTVYLQMNSLKPEDTAVYYCATGVDTYSLTVEHDSWVQGTQVTVSS", "polyreactivity (PSR sort gate)": "low polyreactivity"}
{"sequence": "QVQQVESGGGLVQAGGSLRLSCADSGRTFTLYAMGWYRQAPGKERELVAAITWRGGRTYYADSVKGRFTISRDNAKNTVYFQMNSLKPEVTEVYYCAARKYSPQLDRYGYWGQGTQVTVSS", "polyreactivity (PSR sort gate)": "high polyreactivity"}
{"sequence": "QVQLVESGGGLVQAGGSLRLSCAASGFTFYYNAMGWYRQAPGKERELVASISSNGTSTYYADSVKGRFTISRDNAMNTVYLQMNSLKPEDTAVYYCNVDIFDPRTYDYWGQGTQVTVSS", "polyreactivity (PSR sort gate)": "low polyreactivity"}
